Laboratory results as given in patent US20220363752A1 (VERSEAU THERAPEUTICS, published 2022).
Primed or numbered codes have the meaning given here. Biotin′ = not defined here

T1: LRRC25(21-40) biotin peptide (human, not fully specified; N-terminal NH2; C-terminal GGK-Biotin; native Cys changed to Ser)
T1 peptide: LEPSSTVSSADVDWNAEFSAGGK

T2: LRRC25(36-55) biotin peptide (human, not fully specified; N-terminal NH2; C-terminal GGK-Biotin; native Cys changed to Ser)
T2 peptide: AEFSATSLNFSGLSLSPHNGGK

T3: LRRC25(51-69) biotin peptide (human, not fully specified; N-terminal acetyl; C-terminal GGK-Biotin)
T3 peptide: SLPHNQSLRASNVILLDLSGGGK

T4: LRRC25(66-85) biotin peptide (human, not fully specified; N-terminal acetyl; C-terminal GGK-Biotin)
T4 peptide: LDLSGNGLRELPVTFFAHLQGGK

T5: LRRC25(81-100) biotin peptide (human, not fully specified; N-terminal acetyl; C-terminal GGK-Biotin)
T5 peptide: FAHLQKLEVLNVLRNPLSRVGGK

T6: LRRC25(96-115) biotin peptide (human, not fully specified; N-terminal acetyl; C-terminal GGK-Biotin; native Cys changed to Ser)
T6 construct: also called Biotin LRRC25 (96-115) peptide
T6 peptide: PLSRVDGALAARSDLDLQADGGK

T7: LRRC25(111-130) biotin peptide (human, not fully specified; N-terminal acetyl; C-terminal GGK-Biotin; native Cys changed to Ser)
T7 peptide: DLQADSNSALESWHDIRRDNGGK

T8: LRRC25(126-145) biotin peptide (human, not fully specified; N-terminal acetyl; C-terminal GGK-Biotin; native Cys changed to Ser)
T8 peptide: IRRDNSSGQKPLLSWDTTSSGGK

T9: LRRC25(141-159) biotin peptide (human, not fully specified; N-terminal acetyl; C-terminal GGK-Biotin; native Cys changed to Ser)
T9 peptide: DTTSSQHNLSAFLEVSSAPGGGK

T10: LRRC25(150-165) biotin peptide (human)
T10 peptide: Ac-SAFLEVSSAPGLASATGG-{Biotin′}


Legend:
[1] = target: T1, LRRC25(21-40) biotin peptide; assay: peptide ELISA
Method: (§1) To establish if functional chimera anti-LRRC25 antibodies recognize particular regions of LRRC25, ELISA experiments were performed using 10 plate-immobilized 16- to 20-mer overlapping LRRC25(ECD) biotin peptides (Table 7). Biotinylated human LRRC25-His served as a positive control. A typical ELISA was performed by coating overnight at 4° C., 3 ug/mL/25 ul per well of streptavidin (Jackson Immunoresearch, Cat. #016-030-084) in PBS in half-area high binding microtiter wells (Corning Cat. #3690). […] Biotin peptides or biotinylated human LRRC25-His protein were added in duplicate (2 ug/mL/25 ul per well) in assay buffer (blocking buffer containing 0.05% tween 20) and the plate incubated for 45 min at 37° C. The plate was washed as before, 20 nM anti-LRRC25 antibodies in assay buffer added in duplicate into appropriate wells, and the plate incubated as before. The plate was washed and HRP-conjugated secondary antibody in assay buffer added [25 ul per well; goat anti-human IgG (Jackson Immunoresearch, Cat. #715-035-150)], and incubated as before. Antibody bound to plate-immobilized peptide(s) or protein was determined at A450 nm using HRP substrate (3,3′,5,5′-tetramethylbenzidine (TMB); eBioscience; Cat. #00-4201-56); 100 μl/well).

[2] = target: T2, LRRC25(36-55) biotin peptide; assay: peptide ELISA
Method: as §1

[3] = target: T3, LRRC25(51-69) biotin peptide; assay: peptide ELISA
Method: as §1

[4] = target: T4, LRRC25(66-85) biotin peptide; assay: peptide ELISA
Method: as §1

[5] = target: T5, LRRC25(81-100) biotin peptide; assay: peptide ELISA
Method: as §1

[6] = target: T6, LRRC25(96-115) biotin peptide; assay: peptide ELISA
Method: as §1

[7] = target: T7, LRRC25(111-130) biotin peptide; assay: peptide ELISA
Method: as §1

[8] = target: T8, LRRC25(126-145) biotin peptide; assay: peptide ELISA
Method: as §1

[9] = target: T9, LRRC25(141-159) biotin peptide; assay: peptide ELISA
Method: as §1

[10] = target: T10, LRRC25(150-165) biotin peptide; assay: peptide ELISA
Method: as §1

[11] = target: T11, biotinylated human LRRC25-His protein (human, UniProt Q8N386 21-165, biotinylated (sites not given)); assay: ELISA, 20 nM antibody, biotinylated antigen on streptavidin plate
T11 construct: also called Biotin LRRC25-His; biotinylated LRRC25 protein
T11 sequence (Q8N386 other isoform, or with tags, fused parts or gaps): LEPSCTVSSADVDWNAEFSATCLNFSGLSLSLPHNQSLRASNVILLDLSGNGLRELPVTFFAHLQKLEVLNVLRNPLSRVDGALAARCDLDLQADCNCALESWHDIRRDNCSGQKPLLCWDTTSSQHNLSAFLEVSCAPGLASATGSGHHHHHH
Method: as §1

[12] = target: T6, LRRC25(96-115) biotin peptide; assay: as above
Method: as §1

[13] = target: T12, His-tagged human LRRC25 extracellular domain protein, human LRRC25-His (human, UniProt Q8N386 21-165); assay: ELISA, plate-immobilized antigen
T12 construct: The entry holds the extracellular domain, a GSG linker and the His tag; also called LRRC25(ECD)-HIS
T12 sequence (Q8N386 other isoform, or with tags, fused parts or gaps): as above
Method: To establish the relative binding strengths of anti-LRRC25 antibodies against human LRRC25, and their cross-reactivity with cynomolgus monkey LRRC25, antibody binding curve analyses were performed and EC50 values against plate-immobilized recombinant human and cyno LRRC25 proteins were determined.
(§2) A typical ELISA was performed by coating overnight in PBS, pH 7.4, at 4° C. in high binding microtiter wells with 1 ug/mL/100 ul per well of human LRRC25-His or cyno LRRC25-His. An anti-human LRRC25 antibody (2A3, LS Bio, LS-C174039-100) and anti-HIS-HRP (Miltenyi Biotec; 130-092-783) served as coating controls for the human and cyno LRRC25 proteins, respectively. […] Anti-LRRC25 antibodies were added (100 ul per well) at 500 nM and serially diluted 3-fold in assay buffer (1% skimmed milk in PBS, pH 7.4). The plate was incubated with gentle agitation for 1 h at room temperature. The plate was washed 3× and HRP-conjugated secondary antibody in assay buffer added [100 ul per well; goat anti-human IgG (Jackson Immunoresearch, cat #715-035-150)], and the plate was incubated as before. Antibody bound to plate-immobilized LRRC25(ECD)-HIS was determined at A450 nm using HRP substrate (3,3′,5,5′-tetramethylbenzidine (TMB); eBioscience; 00-4201-56); 100 μl/well).

[14] = target: T13, His-tagged cynomolgus monkey LRRC25 extracellular domain protein, cyno LRRC25-His (cynomolgus monkey); assay: ELISA, plate-immobilized cyno LRRC25-His
T13 construct: The entry holds the extracellular domain, a GSG linker and the His tag
T13 sequence (chain, as listed by the source limits assumed): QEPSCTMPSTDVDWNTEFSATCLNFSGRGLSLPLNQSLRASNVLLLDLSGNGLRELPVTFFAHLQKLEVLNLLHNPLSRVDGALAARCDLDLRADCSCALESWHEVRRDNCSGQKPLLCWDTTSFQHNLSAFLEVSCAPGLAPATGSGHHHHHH
Method: as §2

Row | binding result [1] | binding result [2] | binding result [3] | binding result [4] | binding result [5] | binding result [6] | binding result [7] | binding result [8] | binding result [9] | binding result [10] | absorbance (A450) [11] [A450] | absorbance (A450) [12] [A450] | EC50 [13] [nM] | binding result [14] | Binder
1 | no binding (tested: 20 nM) | no binding (tested: 20 nM) | no binding (tested: 20 nM) | no binding (tested: 20 nM) | no binding (tested: 20 nM) | no binding (tested: 20 nM) | no binding (tested: 20 nM) | no binding (tested: 20 nM) | no binding (tested: 20 nM) | no binding (tested: 20 nM) | 2.6 | 0.049 | – | – | anti-LRRC25 chimeric antibody 2G02 (antibody, human IgG4, V domains shown) VH: QVTLKESGPGILQPSQTLSLTCSFSGFSLSTSGMGVSWIRQPSGKGLEWLAHIYWDDDKRYNPSLKSRLTISKDTSSNQVFLKITSVDTADTATYYCARRHRDYDSRGHWYFGVWGAGTTVTVSS VL: DVVMTQTPKSMSMSVGERVTLSCKASENVGTYVSWYQQKPEQSPKLLIYGASNRYTGVPDRFTGSGSATDFTLTISSVQAEDLADYHCGQSYNYPFTFGGGTKLEIKR
2 | no binding (tested: 20 nM) | no binding (tested: 20 nM) | no binding (tested: 20 nM) | no binding (tested: 20 nM) | no binding (tested: 20 nM) | – | no binding (tested: 20 nM) | no binding (tested: 20 nM) | no binding (tested: 20 nM) | no binding (tested: 20 nM) | 1.23 | 2.8 | 1.9 | no binding (tested: 500 nM) | anti-LRRC25 chimeric antibody 3F06 (antibody, human IgG4, V domains shown) VH: DVMLVESGGGLVKPGGSLKLSCAASGFTFSSYAMSWVRQTPDKRLEWVASISSSGNTYYPDTMKGRFTISRDNARNILYLQMSSLRSEDTAMYYCARGLTGTLFAYWGQGTLVTVSA VL: DIVMTQDAPSVPVTPGESVSISCRSSKSLLHSNGITFLYWFLQKPGQSPQLLIYQMSNLASGVPDRFSSSGSGTDFTLRISRVEAEDVGVYYCAQNLELPFTFGSGTKLEIGR
3 | no binding (tested: 20 nM) | no binding (tested: 20 nM) | no binding (tested: 20 nM) | no binding (tested: 20 nM) | no binding (tested: 20 nM) | – | no binding (tested: 20 nM) | no binding (tested: 20 nM) | no binding (tested: 20 nM) | no binding (tested: 20 nM) | 0.37 | 0.478 | 6.4 | no binding (tested: 500 nM) | anti-LRRC25 chimeric antibody 1A03 (antibody, human IgG4, V domains shown) VH: EVQLVESGGGLVKPGGSLKLSCAASGFTFSSSAVSWVRQTPEKRLEWVASISRGGNTYYPDSVKGRFTISRDNARNILYLQMSSLRSEDTAMYYCARGQELRLFAYWGQGTLVTVSA VL: DIVMTQAAFSNPVTLGTSASISCRSSKSLLHSNGITYLYWYLQKPGQSPQLLIYQMSNLASGVPDRFSSSGSGTDFTLRISRVEAEDVGVYYCAQNLELPPTFGGGTKLEIKR

Second part, the binder before the results:

Row | Binder | binding result [1] | binding result [2] | binding result [3] | binding result [4] | binding result [5] | binding result [6] | binding result [7] | binding result [8] | binding result [9] | binding result [10] | absorbance (A450) [11] [A450] | absorbance (A450) [12] [A450] | EC50 [13] [nM] | binding result [14]
4 | anti-LRRC25 chimeric antibody 1H04 (antibody, human IgG4, V domains shown) VH: EVQLVESGGGLVKPGGSLKLSCAASGFTFSNSAMSWVRQTPEKRLEWVASISRGGKTYYPDSVKGRFTISRDNARNILYLQMSSLRSEDTAMYYCARGQELRLFAYWGQGTLVTVSA VL: DIVMTQDAFSNPVTLGTSASISCRSSKSLLHSNGITYLYWYLQKPGQSPQLLIYQMSNLASGVPDRFSSSGSGTDFTLRISRVEAEDVGVYYCAQNLELPFTFGSGTKLEIKR | no binding (tested: 20 nM) | no binding (tested: 20 nM) | no binding (tested: 20 nM) | no binding (tested: 20 nM) | no binding (tested: 20 nM) | – | no binding (tested: 20 nM) | no binding (tested: 20 nM) | no binding (tested: 20 nM) | no binding (tested: 20 nM) | 1.24 | 2.58 | 0.44 | no binding (tested: 500 nM)
5 | anti-LRRC25 chimeric antibody 1H09 (antibody, human IgG4, V domains shown) VH: DVQLVESGGGLVKPGGSLKLSCAASGFTFSSYAMSWVRQTPEKRLEWVASISRGGNTYYPDSVKGRFTISRDNARNILYLQMSSLRSEDTAMYYCARGNYGNSPFAYWGQGALVTVSA VL: DVVMTQTPASLAVSLGQRATISCRASESVDSYGNSFMHWYQQKPGQPPKLLIYLASNLESGVPARFSGSGSRTDFTLTIDPVEADDAATYYCQQNNEDPFTFGSGTKLEIKR | no binding (tested: 20 nM) | no binding (tested: 20 nM) | no binding (tested: 20 nM) | no binding (tested: 20 nM) | no binding (tested: 20 nM) | – | no binding (tested: 20 nM) | no binding (tested: 20 nM) | no binding (tested: 20 nM) | no binding (tested: 20 nM) | 0.564 | 0.631 | 1.5 | no binding (tested: 500 nM)
6 | anti-LRRC25 chimeric antibody 1F01 (antibody, human IgG4, V domains shown, also called ATCC PTA-126025) VH: EVKLEESGGGLVKPGGSLKLSCAASGFTFSNYAMSWVRQTPEKRLEWVASISRGGNTYYPDSVKGRFTISRDNARNILYLQMSSLRSEDTATYFCTKGNYGSSPFAYWGQGTLVTVSA VL: DIQMTQSPASLSASVGETVTITCRASENIYSYLAWYQQKQGKSPQLLVYNAKTLAEGVPSRFSGSGSGTQFSLKINSLQPEDFGSYYCQHHYGTPFTFGSGTKLEIKR | no binding (tested: 20 nM) | no binding (tested: 20 nM) | no binding (tested: 20 nM) | no binding (tested: 20 nM) | no binding (tested: 20 nM) | – | no binding (tested: 20 nM) | no binding (tested: 20 nM) | no binding (tested: 20 nM) | no binding (tested: 20 nM) | 0.507 | 0.782 | 8.3 | no binding (tested: 500 nM)
